This is an account of results in IntAct's records for PubMed 36376753.

To fix the notation:
B1: SNF1-related protein kinase catalytic subunit alpha KIN10 (Arabidopsis thaliana (Mouse-ear cress)), Q38997 (parent)
chain: MDGSGTGSRSGVESILPNYKLGRTLGIGSFGRVKIAEHALTGHKVAIKILNRRKIKNMEMEEKVRREIKILRLFMHPHIIRLYEVIETPTDIYLVMEYVNSGELFDYIVEKGRLQEDEARNFFQQIISGVEYCHRNMVVHRDLKPENLLLDSKCNVKIADFGLSNIMRDGHFLKTSCGSPNYAAPEVISGKLYAGPEVDVWSCGVILYALLCGTLPFDDENIPNLFKKIKGGIYTLPSHLSPGARDLIPRMLVVDPMKRVTIPEIRQHPWFQAHLPRYLAVPPPDTVQQAKKIDEEILQEVINMGFDRNHLIESLRNRTQNDGTVTYYLILDNRFRASSGYLGAEFQETMEGTPRMHPAESVASPVSHRLPGLMEYQGVGLRSQYPVERKWALGLQSRAHPREIMTEVLKALQDLNVCWKKIGHYNMKCRWVPNSSADGMLSNSMHDNNYFGDESSIIENEAAVKSPNVVKFEIQLYKTRDDKYLLDLQRVQGPQFLFLDLCAAFLAQLRVL
partner: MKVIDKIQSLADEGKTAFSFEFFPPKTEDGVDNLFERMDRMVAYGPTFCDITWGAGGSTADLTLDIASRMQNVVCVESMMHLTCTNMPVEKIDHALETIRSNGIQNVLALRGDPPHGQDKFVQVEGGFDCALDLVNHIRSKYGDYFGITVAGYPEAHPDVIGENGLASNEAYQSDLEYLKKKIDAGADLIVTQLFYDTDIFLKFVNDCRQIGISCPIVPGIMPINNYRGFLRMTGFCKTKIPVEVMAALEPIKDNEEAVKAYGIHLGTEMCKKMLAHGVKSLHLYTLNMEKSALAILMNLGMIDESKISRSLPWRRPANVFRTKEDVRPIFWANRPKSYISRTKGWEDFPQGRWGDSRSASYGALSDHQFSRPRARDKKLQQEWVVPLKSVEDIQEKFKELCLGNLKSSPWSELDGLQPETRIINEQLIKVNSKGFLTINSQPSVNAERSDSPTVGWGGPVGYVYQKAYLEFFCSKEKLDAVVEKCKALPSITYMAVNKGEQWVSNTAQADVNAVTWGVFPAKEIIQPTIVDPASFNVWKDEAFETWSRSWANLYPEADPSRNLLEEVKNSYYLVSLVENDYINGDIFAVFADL
B2: SNF1-related protein kinase catalytic subunit alpha KIN10 (Arabidopsis thaliana (Mouse-ear cress)), Q38997 (parent)
chain: B1 chain
partner: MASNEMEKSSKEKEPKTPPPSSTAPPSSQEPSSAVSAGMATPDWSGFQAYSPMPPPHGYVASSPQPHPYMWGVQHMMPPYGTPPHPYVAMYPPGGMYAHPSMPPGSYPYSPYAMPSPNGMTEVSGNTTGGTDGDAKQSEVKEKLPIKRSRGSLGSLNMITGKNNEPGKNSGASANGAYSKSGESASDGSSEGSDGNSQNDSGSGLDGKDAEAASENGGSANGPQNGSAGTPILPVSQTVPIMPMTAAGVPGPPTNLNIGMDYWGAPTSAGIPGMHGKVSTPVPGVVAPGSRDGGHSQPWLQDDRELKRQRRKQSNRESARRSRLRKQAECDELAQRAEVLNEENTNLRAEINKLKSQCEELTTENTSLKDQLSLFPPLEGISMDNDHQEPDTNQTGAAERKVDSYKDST
B3: SNF1-related protein kinase catalytic subunit alpha KIN10 (Arabidopsis thaliana (Mouse-ear cress)), Q38997 (parent)
chain: B1 chain
partner: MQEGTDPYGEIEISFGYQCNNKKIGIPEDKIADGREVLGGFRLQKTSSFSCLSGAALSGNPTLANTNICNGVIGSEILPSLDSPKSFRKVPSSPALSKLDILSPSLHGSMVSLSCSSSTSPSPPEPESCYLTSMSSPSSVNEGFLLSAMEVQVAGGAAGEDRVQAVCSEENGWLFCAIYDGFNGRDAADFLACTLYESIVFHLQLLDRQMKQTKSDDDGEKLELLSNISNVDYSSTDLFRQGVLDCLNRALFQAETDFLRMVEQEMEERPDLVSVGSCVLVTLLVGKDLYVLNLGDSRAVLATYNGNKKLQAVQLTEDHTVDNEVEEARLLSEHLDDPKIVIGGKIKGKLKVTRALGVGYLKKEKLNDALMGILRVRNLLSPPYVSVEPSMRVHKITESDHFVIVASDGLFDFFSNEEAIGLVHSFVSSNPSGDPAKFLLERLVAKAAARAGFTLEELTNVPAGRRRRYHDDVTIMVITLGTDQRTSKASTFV
B4: SNF1-related protein kinase catalytic subunit alpha KIN10 (Arabidopsis thaliana (Mouse-ear cress)), Q38997 (parent)
chain: B1 chain
partner: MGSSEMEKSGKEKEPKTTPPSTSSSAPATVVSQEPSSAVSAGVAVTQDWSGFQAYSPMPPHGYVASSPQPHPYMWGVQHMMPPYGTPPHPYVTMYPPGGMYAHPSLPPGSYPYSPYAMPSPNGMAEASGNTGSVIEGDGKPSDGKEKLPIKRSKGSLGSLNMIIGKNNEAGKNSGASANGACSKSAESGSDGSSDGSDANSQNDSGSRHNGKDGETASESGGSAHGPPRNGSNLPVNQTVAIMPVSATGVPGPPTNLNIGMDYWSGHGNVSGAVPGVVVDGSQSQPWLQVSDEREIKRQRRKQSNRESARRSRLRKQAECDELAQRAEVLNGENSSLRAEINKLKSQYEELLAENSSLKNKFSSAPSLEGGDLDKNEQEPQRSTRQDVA

Variants of B1 are the subject of one assay. The note with it: with mthr2_arath MTHFR2, O80585.
Turning to MDGSGTGSRSGVESILPNYKLGRTLGIGSFGRVKIAEHALTGHKVAIMILNRRKIKNMEMEEKVRREIKILRLFMHPHIIRLYEVIETPTDIYLVMEYVNSGELFDYIVEKGRLQEDEARNFFQQIISGVEYCHRNMVVHRDLKPENLLLDSKCNVKIADFGLSNIMRDGHFLKTSCGSPNYAAPEVISGKLYAGPEVDVWSCGVILYALLCGTLPFDDENIPNLFKKIKGGIYTLPSHLSPGARDLIPRMLVVDPMKRVTIPEIRQHPWFQAHLPRYLAVPPPDTVQQAKKIDEEILQEVINMGFDRNHLIESLRNRTQNDGTVTYYLILDNRFRASSGYLGAEFQETMEGTPRMHPAESVASPVSHRLPGLMEYQGVGLRSQYPVERKWALGLQSRAHPREIMTEVLKALQDLNVCWKKIGHYNMKCRWVPNSSADGMLSNSMHDNNYFGDESSIIENEAAVKSPNVVKFEIQLYKTRDDKYLLDLQRVQGPQFLFLDLCAAFLAQLRVL [K48M], the “effect of a mutation on the interaction” value is reported as “disrupting interaction strength”.

The variants in a further assay derive from B2. The note with it: with bzp16_arath BZIP16, Q501B2.
Consider MDGSGTGSRSGVESILPNYKLGRTLGIGSFGRVKIAEHALTGHKVAIMILNRRKIKNMEMEEKVRREIKILRLFMHPHIIRLYEVIETPTDIYLVMEYVNSGELFDYIVEKGRLQEDEARNFFQQIISGVEYCHRNMVVHRDLKPENLLLDSKCNVKIADFGLSNIMRDGHFLKTSCGSPNYAAPEVISGKLYAGPEVDVWSCGVILYALLCGTLPFDDENIPNLFKKIKGGIYTLPSHLSPGARDLIPRMLVVDPMKRVTIPEIRQHPWFQAHLPRYLAVPPPDTVQQAKKIDEEILQEVINMGFDRNHLIESLRNRTQNDGTVTYYLILDNRFRASSGYLGAEFQETMEGTPRMHPAESVASPVSHRLPGLMEYQGVGLRSQYPVERKWALGLQSRAHPREIMTEVLKALQDLNVCWKKIGHYNMKCRWVPNSSADGMLSNSMHDNNYFGDESSIIENEAAVKSPNVVKFEIQLYKTRDDKYLLDLQRVQGPQFLFLDLCAAFLAQLRVL [K48M], for which the “effect of a mutation on the interaction” value is given as “disrupting interaction strength”.

Variants of B3 are the subject of the next assay. The note with it: with p2c40, Q9LUS8.
With MDGSGTGSRSGVESILPNYKLGRTLGIGSFGRVKIAEHALTGHKVAIMILNRRKIKNMEMEEKVRREIKILRLFMHPHIIRLYEVIETPTDIYLVMEYVNSGELFDYIVEKGRLQEDEARNFFQQIISGVEYCHRNMVVHRDLKPENLLLDSKCNVKIADFGLSNIMRDGHFLKTSCGSPNYAAPEVISGKLYAGPEVDVWSCGVILYALLCGTLPFDDENIPNLFKKIKGGIYTLPSHLSPGARDLIPRMLVVDPMKRVTIPEIRQHPWFQAHLPRYLAVPPPDTVQQAKKIDEEILQEVINMGFDRNHLIESLRNRTQNDGTVTYYLILDNRFRASSGYLGAEFQETMEGTPRMHPAESVASPVSHRLPGLMEYQGVGLRSQYPVERKWALGLQSRAHPREIMTEVLKALQDLNVCWKKIGHYNMKCRWVPNSSADGMLSNSMHDNNYFGDESSIIENEAAVKSPNVVKFEIQLYKTRDDKYLLDLQRVQGPQFLFLDLCAAFLAQLRVL [K48M], the “effect of a mutation on the interaction” value was “disrupting interaction strength”.

Variants of B4 are the subject of the next assay. The note with it: with bzp68_arath BZIP68, Q84LG2.
Take MDGSGTGSRSGVESILPNYKLGRTLGIGSFGRVKIAEHALTGHKVAIMILNRRKIKNMEMEEKVRREIKILRLFMHPHIIRLYEVIETPTDIYLVMEYVNSGELFDYIVEKGRLQEDEARNFFQQIISGVEYCHRNMVVHRDLKPENLLLDSKCNVKIADFGLSNIMRDGHFLKTSCGSPNYAAPEVISGKLYAGPEVDVWSCGVILYALLCGTLPFDDENIPNLFKKIKGGIYTLPSHLSPGARDLIPRMLVVDPMKRVTIPEIRQHPWFQAHLPRYLAVPPPDTVQQAKKIDEEILQEVINMGFDRNHLIESLRNRTQNDGTVTYYLILDNRFRASSGYLGAEFQETMEGTPRMHPAESVASPVSHRLPGLMEYQGVGLRSQYPVERKWALGLQSRAHPREIMTEVLKALQDLNVCWKKIGHYNMKCRWVPNSSADGMLSNSMHDNNYFGDESSIIENEAAVKSPNVVKFEIQLYKTRDDKYLLDLQRVQGPQFLFLDLCAAFLAQLRVL [K48M]: the “effect of a mutation on the interaction” value was “disrupting interaction strength”.
